Data as given in US20250361314A1 (SHANGHAI HUAOTA BIOPHARMACEUTICAL, published 2025).

B1: CD39/CD73 bispecific antibody 700038 (CD39-VHH-CD73-IgG) (bispecific antibody)
heavy: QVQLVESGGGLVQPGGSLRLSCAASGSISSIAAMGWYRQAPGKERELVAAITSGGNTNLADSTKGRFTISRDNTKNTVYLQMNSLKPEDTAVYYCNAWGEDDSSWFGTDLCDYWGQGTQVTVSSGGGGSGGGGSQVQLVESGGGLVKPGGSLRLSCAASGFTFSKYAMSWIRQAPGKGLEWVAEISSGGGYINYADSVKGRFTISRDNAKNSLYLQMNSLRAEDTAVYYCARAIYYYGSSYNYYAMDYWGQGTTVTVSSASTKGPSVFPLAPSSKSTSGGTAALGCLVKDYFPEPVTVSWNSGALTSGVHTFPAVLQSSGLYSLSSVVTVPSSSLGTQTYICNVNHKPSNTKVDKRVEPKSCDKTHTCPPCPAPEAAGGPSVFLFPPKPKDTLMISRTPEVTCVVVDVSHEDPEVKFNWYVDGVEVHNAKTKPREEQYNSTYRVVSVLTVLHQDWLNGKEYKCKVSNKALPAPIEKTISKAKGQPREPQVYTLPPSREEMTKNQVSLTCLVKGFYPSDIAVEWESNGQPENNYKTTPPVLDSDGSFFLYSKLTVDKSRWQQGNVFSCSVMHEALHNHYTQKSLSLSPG
light: DIQMTQSPSSLSASVGDRVTITCRASQDVGTAEAWYQQKPGKAPKLLIYWASTRHTGVPSRFSGSGSGTDFTLTISSLQPEDFATYYCQQYSSYPLTFGQGTKLEIKRTVAAPSVFIFPPSDEQLKSGTASVVCLLNNFYPREAKVQWKVDNALQSGNSQESVTEQDSKDSTYSLSSTLTLSKADYEKHKVYACEVTHQGLSSPVTKSFNRGEC
B2: CD39/CD73 bispecific antibody 700035 (CD39-VHH-CD73-IgG) (bispecific antibody)
heavy: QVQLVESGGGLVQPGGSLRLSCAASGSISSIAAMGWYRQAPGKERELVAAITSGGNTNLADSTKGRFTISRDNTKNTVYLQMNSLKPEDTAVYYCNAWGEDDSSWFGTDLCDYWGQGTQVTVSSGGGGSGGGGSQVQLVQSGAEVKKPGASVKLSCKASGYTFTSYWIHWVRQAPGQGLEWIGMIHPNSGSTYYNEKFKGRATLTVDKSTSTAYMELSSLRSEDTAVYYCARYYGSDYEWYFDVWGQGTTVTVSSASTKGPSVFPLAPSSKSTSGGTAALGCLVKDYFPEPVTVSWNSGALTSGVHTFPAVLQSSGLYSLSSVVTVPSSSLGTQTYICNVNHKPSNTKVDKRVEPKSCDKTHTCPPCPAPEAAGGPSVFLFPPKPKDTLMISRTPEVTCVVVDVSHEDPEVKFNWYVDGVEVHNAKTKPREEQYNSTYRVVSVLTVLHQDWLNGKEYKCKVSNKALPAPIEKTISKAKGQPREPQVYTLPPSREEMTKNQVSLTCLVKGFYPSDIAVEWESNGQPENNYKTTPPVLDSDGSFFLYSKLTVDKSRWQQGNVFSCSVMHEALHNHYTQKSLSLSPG
light: DIQMTQSPSSMSASVGDRVTITCKASQNVRTAVVWYQQKPGKAPKALIYLASNRHTGVPDRFSGSGSGTDFTLTISSLQPEDFATYFCLQHWNYPYTFGQGTKLEIKRTVAAPSVFIFPPSDEQLKSGTASVVCLLNNFYPREAKVQWKVDNALQSGNSQESVTEQDSKDSTYSLSSTLTLSKADYEKHKVYACEVTHQGLSSPVTKSFNRGEC

Legend:
[1] = molecular target: T1, Human CD39 on CHOK1-huCD39-10B6 cells overexpressing CD39 (human, UniProt P49961 1-510); assay: cell-based or functional assay
T1 sequence (looked up): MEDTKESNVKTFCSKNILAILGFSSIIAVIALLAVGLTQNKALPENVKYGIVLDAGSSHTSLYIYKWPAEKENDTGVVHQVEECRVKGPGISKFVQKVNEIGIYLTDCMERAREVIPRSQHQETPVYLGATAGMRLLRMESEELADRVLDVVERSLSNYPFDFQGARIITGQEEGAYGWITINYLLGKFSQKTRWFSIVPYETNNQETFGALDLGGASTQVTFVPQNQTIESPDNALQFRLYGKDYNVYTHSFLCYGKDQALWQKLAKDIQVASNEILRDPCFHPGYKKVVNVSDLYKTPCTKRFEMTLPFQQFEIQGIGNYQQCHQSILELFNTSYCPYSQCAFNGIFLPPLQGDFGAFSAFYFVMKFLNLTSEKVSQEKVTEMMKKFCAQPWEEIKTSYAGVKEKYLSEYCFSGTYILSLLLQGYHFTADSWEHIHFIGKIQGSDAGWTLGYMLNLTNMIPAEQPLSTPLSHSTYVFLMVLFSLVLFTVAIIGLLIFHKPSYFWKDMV

[2] = molecular target: soluble recombinant protein CD73; assay: cell-based or functional assay
Human CD73 antigen = molecular target: T2, Human CD73 antigen (human, UniProt P21589 27-547, limits assumed); assay: SPR (Biacore 8K), antibody captured on anti-human capture CM5 chip, antigen as analyte, 1:1 model
T2 construct: Antigen used as analyte in SPR; also called NT5E
T2 sequence (looked up): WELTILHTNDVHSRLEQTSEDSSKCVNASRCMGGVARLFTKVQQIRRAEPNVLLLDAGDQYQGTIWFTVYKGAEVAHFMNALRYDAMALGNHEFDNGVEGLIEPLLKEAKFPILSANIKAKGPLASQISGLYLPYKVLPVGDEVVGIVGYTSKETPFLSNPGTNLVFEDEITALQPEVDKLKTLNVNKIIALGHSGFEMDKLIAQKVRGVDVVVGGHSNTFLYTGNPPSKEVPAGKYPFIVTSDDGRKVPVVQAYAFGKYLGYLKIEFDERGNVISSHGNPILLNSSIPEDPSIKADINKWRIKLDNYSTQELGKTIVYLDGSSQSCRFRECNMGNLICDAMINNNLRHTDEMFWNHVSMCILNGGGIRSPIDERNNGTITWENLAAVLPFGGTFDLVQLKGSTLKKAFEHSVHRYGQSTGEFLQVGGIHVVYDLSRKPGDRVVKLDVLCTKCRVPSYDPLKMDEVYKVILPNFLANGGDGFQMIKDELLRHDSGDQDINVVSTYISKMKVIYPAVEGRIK
Description: (§1) An Anti-Human Capture-CM5 chip (GE, #BR-1005-30) was prepared using coupling methods of a Human Antibody Capture Kit (GE, #BR-1008-39) and an amino coupling kit (GE, BR-1000-50). The chip was equilibrated at room temperature for 20-30 mins and loaded into a Biacore 8K instrument. The antigen and antibody were diluted to an experimental working concentration using an equilibration buffer. The antigens were diluted with the equilibrium buffer to 50 nM, and then diluted three-fold for seven concentration gradients, and two zero concentrations (i.e., the equilibrium buffer) and one repeat concentration (typically the lowest concentration repeat) were set. Experimental analysis was performed on 10 antigen concentrations (2 zero concentrations, 7 gradient concentrations, and 1 repeated concentration) in a cyclic manner according to an order of antibody, antigen, and regeneration. The antigen injection flow rate was 30 μL/min, the binding time was 120 s, and the dissociation time was 600 s. Following the analysis, the data was analyzed using the corresponding analysis program to confirm that there was no obvious reference binding. Using Kinetics and a 1:1 binding model, the data was fit to obtain the kinetic related parameters Ka, Kd, and KD values of the bispecific antibodies and parental control antibodies.

Human CD39 antigen = molecular target: T3, Human CD39 antigen (human, UniProt P49961 38-478); assay: as above
T3 construct: Antigen used as analyte in SPR; also called ENTPD1
T3 sequence (looked up): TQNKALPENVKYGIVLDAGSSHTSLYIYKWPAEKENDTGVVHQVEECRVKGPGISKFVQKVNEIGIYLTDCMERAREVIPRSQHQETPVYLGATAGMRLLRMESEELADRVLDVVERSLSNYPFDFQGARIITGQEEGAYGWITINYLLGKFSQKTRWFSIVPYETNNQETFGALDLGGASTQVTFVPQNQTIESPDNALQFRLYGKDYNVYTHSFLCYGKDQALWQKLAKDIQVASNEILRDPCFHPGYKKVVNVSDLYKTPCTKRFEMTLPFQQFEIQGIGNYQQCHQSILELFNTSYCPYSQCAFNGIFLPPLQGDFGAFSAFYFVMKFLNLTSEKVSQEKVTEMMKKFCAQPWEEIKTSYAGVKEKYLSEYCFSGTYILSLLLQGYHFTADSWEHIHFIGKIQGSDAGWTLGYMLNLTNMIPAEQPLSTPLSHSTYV
Description: as §1

[3] = molecular target: T4, Human CD73 on CHOK1-huCD73-3F4 cells overexpressing CD73 (human, UniProt P21589 27-549); assay: cell-based or functional assay
T4 sequence (looked up): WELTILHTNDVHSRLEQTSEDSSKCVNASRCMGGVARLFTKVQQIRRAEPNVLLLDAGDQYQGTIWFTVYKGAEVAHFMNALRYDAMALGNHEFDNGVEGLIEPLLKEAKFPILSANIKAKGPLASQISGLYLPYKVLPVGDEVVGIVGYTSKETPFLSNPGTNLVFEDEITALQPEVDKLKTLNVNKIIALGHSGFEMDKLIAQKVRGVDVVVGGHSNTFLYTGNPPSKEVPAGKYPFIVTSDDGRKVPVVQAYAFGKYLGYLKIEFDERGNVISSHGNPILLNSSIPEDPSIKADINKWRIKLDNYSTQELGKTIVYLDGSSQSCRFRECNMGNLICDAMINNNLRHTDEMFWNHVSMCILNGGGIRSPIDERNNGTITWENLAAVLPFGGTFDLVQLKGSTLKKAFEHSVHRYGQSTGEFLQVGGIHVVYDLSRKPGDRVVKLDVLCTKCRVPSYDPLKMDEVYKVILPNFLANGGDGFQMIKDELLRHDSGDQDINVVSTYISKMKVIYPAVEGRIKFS

soluble recombinant protein CD73, sequence (P21589 whole entry): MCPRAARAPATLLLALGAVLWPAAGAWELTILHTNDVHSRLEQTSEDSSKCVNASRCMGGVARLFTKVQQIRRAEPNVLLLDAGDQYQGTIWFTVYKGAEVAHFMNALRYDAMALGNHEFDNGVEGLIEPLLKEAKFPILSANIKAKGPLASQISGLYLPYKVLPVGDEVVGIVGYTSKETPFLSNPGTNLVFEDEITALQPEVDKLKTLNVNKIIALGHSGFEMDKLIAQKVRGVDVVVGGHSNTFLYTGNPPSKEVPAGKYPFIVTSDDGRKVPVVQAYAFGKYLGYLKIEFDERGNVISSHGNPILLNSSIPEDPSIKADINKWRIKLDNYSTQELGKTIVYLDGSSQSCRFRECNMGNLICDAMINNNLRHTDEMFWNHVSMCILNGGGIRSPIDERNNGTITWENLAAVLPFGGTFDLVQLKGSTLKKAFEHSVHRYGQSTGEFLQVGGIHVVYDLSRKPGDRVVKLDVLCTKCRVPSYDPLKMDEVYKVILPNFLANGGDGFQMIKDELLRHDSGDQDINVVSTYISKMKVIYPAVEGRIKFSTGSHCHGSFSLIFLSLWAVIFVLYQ

Binder	EC50 (µg/mL), inhibition of CD39 ATPase activity on CHOK1-huCD39-10B6 cells (CellTiter Glo) [1]	EC50 (µg/mL), inhibition of enzyme activity of soluble CD73 protein (CellTiter Glo) [2]	Kd (Human CD73 antigen)	koff (Human CD73 antigen)	kon (Human CD73 antigen)	Kd (Human CD39 antigen)	koff (Human CD39 antigen)	kon (Human CD39 antigen)	EC50 (µg/mL), inhibition of enzyme activity of membrane CD73 on CHOK1-huCD73-3F4 cells (CellTiter Glo) [3]
B1	0.187 µg/mL	1.85 µg/mL	425 pM	0.000249 s⁻¹	587000 M⁻¹ s⁻¹	91.8 pM	9.54e-05 s⁻¹	1.04e+06 M⁻¹ s⁻¹	–
B2	0.208 µg/mL	–	341 pM	0.000319 s⁻¹	935000 M⁻¹ s⁻¹	70.8 pM	9.28e-05 s⁻¹	1.31e+06 M⁻¹ s⁻¹	0.615 µg/mL
